According to patent publication US20240018237A1 (SICHUAN KELUN BIOTECH BIOPHARMACEUTICAL, published 2024):
Positions count from the first letter of the chain named. Each block holds one binder with its values, some of them ahead of it.

What was measured:
[1] = target: T1, human ROR1 (full-length, on the cell surface) (human, UniProt Q01973 30-937); assay: flow cytometry, Jeko-1 cells
T1 construct: whole, on cells; the tumour cell lines carry their own ROR1; also called Ba/F3-ROR1 cells; Jeko-1
Description: (§1) The affinities of the anti-human ROR1 humanized antibodies to Ba/F3-ROR1, Jeko-1, HT-29 and A549 cells were detected by flow cytometry. The specific experimental steps were as follows: the BaBF3-ROR1, Jeko-1, HT-29 and A549 cells were incubated with the purified humanized antibodies of different concentration gradients on ice for 30 minutes, and the anti-ROR1 antibody UC961 with human IgG1 and the anti-TNP antibody were used as positive and negative controls, respectively.

[2] = target: T1, human ROR1 (full-length, on the cell …); assay: flow cytometry, Ba/F3-ROR1 cells
Description: as §1

[3] = target: T1, human ROR1 (full-length, on the cell …); assay: flow cytometry, A549 cells
Description: as §1

[4] = target: T1, human ROR1 (full-length, on the cell …); assay: flow cytometry, HT-29 cells
Description: as §1

[5] = target: T1, human ROR1 (full-length, on the cell …); assay: flow cytometry, Ba/F3-ROR1 cells; remark: listed apart in the source

T1 sequence (Q01973 30-937): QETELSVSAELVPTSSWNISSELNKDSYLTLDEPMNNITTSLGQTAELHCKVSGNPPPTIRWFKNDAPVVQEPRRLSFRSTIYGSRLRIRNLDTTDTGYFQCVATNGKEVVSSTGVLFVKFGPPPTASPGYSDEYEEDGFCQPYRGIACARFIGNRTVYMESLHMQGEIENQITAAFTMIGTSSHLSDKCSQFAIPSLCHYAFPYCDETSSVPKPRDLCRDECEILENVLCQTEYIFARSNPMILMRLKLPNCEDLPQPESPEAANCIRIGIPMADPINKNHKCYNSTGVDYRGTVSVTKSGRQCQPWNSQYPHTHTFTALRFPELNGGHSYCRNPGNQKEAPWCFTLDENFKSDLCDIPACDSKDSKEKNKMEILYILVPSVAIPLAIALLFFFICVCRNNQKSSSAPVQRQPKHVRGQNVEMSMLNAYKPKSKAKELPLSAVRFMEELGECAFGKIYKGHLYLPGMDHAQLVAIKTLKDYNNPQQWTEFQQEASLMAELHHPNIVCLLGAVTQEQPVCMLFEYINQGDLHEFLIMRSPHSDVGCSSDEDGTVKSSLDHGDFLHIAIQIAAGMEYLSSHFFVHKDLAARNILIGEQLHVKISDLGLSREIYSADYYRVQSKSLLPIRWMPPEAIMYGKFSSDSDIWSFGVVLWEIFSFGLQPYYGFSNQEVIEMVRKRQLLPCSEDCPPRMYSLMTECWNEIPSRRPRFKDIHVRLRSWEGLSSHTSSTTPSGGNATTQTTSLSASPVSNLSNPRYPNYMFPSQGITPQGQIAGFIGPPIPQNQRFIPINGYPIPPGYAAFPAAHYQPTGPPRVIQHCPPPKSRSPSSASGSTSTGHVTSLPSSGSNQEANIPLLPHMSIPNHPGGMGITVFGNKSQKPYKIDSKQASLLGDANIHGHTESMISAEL

EC50 [1]: 0.06 nM | EC50 [2]: 0.19 nM | EC50 [3]: 0.85 nM | EC50 [4]: 1.3 nM
B1: 3D8-HuC84 (antibody, human IgG1, kappa, V domains shown)
VH: EVQLVESGGGLVQPGGSLRLSCAASGFTFSSYAMSWVRQAPEKRLEWVSSISSGGSTYYPDSVKGRFTISRDNSKNTLYLQMNSLRAEDTAVYYCARVNYYGYGDYAMDYWGQGTLVTVSS
VL: DIQMTQSPSSLSASVGDRVTITCQASQDISNYLTWFQQKPGKSPKTLIHRANRLVTGVPSRFSGSGSGTDFTFTISSLQPEDIATYYCLQYDEFPYTFGGGTKVEIKR
notes: humanized, human IgG1 / kappa

EC50 [1]: 0.07 nM | EC50 [2]: 0.99 nM | EC50 [3]: 0.27 nM | EC50 [4]: 0.25 nM
B2: 38F8-Hu27 (antibody, human IgG1, kappa, V domains shown)
VH: EVQLVESGGGLVQPGGSLRLSCAASGFTFSNYAMSWVRQAPGKGLEWVASISSGGPTYYPDSVKGRFTVSRDNSKNTLYLQMNSLRAEDTAVYYCARGYRYDVNWYFDVWGAGTMVTVSS
VL: B1 VL with F71Y, T85I
notes: humanized, human IgG1 / kappa

EC50 [1]: 0.07 nM | EC50 [2]: 1.48 nM | EC50 [3]: 0.21 nM | EC50 [4]: 0.29 nM
B3: 38F8-Hu17 (antibody, human IgG1, kappa, V domains shown)
VH: B2 VH with A23T, P60A, K75R, A112R, M115L
VL: B1 VL with F71Y, T85I
notes: humanized, human IgG1 / kappa

EC50 [1]: 0.09 nM | EC50 [2]: 1.2 nM | EC50 [3]: 0.31 nM | EC50 [4]: 0.42 nM
B4: 38F8-Hu64 (antibody, human IgG1, kappa, V domains shown)
VH: B2 VH with E1Q, Q13K, G42E, G44R, V69I, S74A, T77S
VL: B1 VL
notes: humanized, human IgG1 / kappa

EC50 [1]: 0.11 nM | EC50 [2]: 0.93 nM | EC50 [3]: 0.35 nM | EC50 [4]: 0.44 nM
B5: 38F8-Hu66 (antibody, human IgG1, kappa, V domains shown)
VH: B2 VH with E1Q, Q13K, G42E, G44R, V69I, S74A, T77S
VL: B1 VL with S30N, N31S
notes: humanized, human IgG1 / kappa

EC50 [1]: 0.1 nM | EC50 [2]: 2.35 nM | EC50 [3]: 0.31 nM | EC50 [4]: 0.44 nM
B6: 38F8-Hu37 (antibody, human IgG1, kappa, V domains shown)
VH: B2 VH with E1Q, Q13K, P60A, V69I, S74A, T77S
VL: B1 VL with F71Y, T85I
notes: humanized, human IgG1 / kappa

EC50 [1]: 0.11 nM | EC50 [2]: 2.19 nM | EC50 [3]: 0.54 nM | EC50 [4]: 0.55 nM
B7: 38F8-Hu68 (antibody, human IgG1, kappa, V domains shown)
VH: B2 VH with E1Q, Q13K, G42E, G44R, V69I, S74A, T77S
VL: B1 VL with S30N, N31S, F71Y, T85I
notes: humanized, human IgG1 / kappa

EC50 [1]: 0.13 nM | EC50 [2]: 1.43 nM | EC50 [3]: 0.38 nM | EC50 [4]: 0.59 nM
B8: 38F8-Hu38 (antibody, human IgG1, kappa, V domains shown)
VH: B2 VH with E1Q, Q13K, P60A, V69I, S74A, T77S
VL: B1 VL with S30N, N31S, F71Y, T85I
notes: humanized, human IgG1 / kappa

EC50 [1]: 0.1 nM | EC50 [2]: 0.84 nM | EC50 [3]: 0.4 nM | EC50 [4]: 0.61 nM
B9: 38F8-Hu67 (antibody, human IgG1, kappa, V domains shown)
VH: B2 VH with E1Q, Q13K, G42E, G44R, V69I, S74A, T77S
VL: B1 VL with F71Y, T85I
notes: humanized, human IgG1 / kappa

EC50 [1]: 0.09 nM | EC50 [2]: 0.77 nM | EC50 [3]: 0.29 nM | EC50 [4]: 0.33 nM
B10: 38F8-Hu26 (antibody, human IgG1, kappa, V domains shown)
VH: B2 VH
VL: B1 VL with S30N, N31S
notes: humanized, human IgG1 / kappa

EC50 [1]: 0.12 nM | EC50 [2]: 1.32 nM | EC50 [3]: 0.34 nM | EC50 [4]: 0.24 nM
B11: 38F8-Hu28 (antibody, human IgG1, kappa, V domains shown)
VH: B2 VH
VL: B1 VL with S30N, N31S, F71Y, T85I
notes: humanized, human IgG1 / kappa

EC50 [1]: 0.06 nM | EC50 [2]: 0.22 nM | EC50 [3]: 1.38 nM | EC50 [4]: 0.74 nM
B12: 3D8-HuC94 (antibody, human IgG1, kappa, V domains shown)
VH: B1 VH with S53N
VL: B1 VL
notes: humanized, human IgG1 / kappa

EC50 [1]: 0.08 nM | EC50 [2]: 0.94 nM | EC50 [3]: 0.22 nM | EC50 [4]: 0.31 nM
B13: 38F8-Hu16 (antibody, human IgG1, kappa, V domains shown)
VH: B2 VH with A23T, P60A, K75R, A112R, M115L
VL: B1 VL with S30N, N31S
notes: humanized, human IgG1 / kappa

EC50 [1]: 0.08 nM | EC50 [2]: 0.84 nM | EC50 [3]: 0.34 nM | EC50 [4]: 0.24 nM
B14: 38F8-Hu14 (antibody, human IgG1, kappa, V domains shown)
VH: B2 VH with A23T, P60A, K75R, A112R, M115L
VL: B1 VL
notes: humanized, human IgG1 / kappa

EC50 [1]: 0.09 nM | EC50 [2]: 1.16 nM | EC50 [3]: 0.3 nM | EC50 [4]: 0.37 nM
B15: 38F8-Hu36 (antibody, human IgG1, kappa, V domains shown)
VH: B2 VH with E1Q, Q13K, P60A, V69I, S74A, T77S
VL: B1 VL with S30N, N31S
notes: humanized, human IgG1 / kappa

EC50 [1]: 0.09 nM | EC50 [2]: 1.57 nM | EC50 [3]: 0.46 nM | EC50 [4]: 0.49 nM
B16: 38F8-Hu54 (antibody, human IgG1, kappa, V domains shown)
VH: B2 VH with G42E, G44R
VL: B1 VL
notes: humanized, human IgG1 / kappa

EC50 [1]: 0.06 nM | EC50 [2]: 1.23 nM | EC50 [3]: 0.19 nM | EC50 [4]: 0.29 nM
B17: 38F8-Hu34 (antibody, human IgG1, kappa, V domains shown)
VH: B2 VH with E1Q, Q13K, P60A, V69I, S74A, T77S
VL: B1 VL
notes: humanized, human IgG1 / kappa

EC50 [1]: 0.05 nM | EC50 [2]: 0.98 nM | EC50 [3]: 0.21 nM | EC50 [4]: 0.24 nM
B18: 38F8-Hu24 (antibody, human IgG1, kappa, V domains shown)
VH: B2 VH
VL: B1 VL
notes: humanized, human IgG1 / kappa

EC50 [1]: 0.1 nM | EC50 [2]: 1.09 nM | EC50 [3]: 0.32 nM | EC50 [4]: 0.42 nM
B19: 38F8-Hu56 (antibody, human IgG1, kappa, V domains shown)
VH: B2 VH with G42E, G44R
VL: B1 VL with S30N, N31S
notes: humanized, human IgG1 / kappa

EC50 [1]: 0.09 nM | EC50 [2]: 1.45 nM | EC50 [3]: 0.32 nM | EC50 [4]: 0.43 nM
B20: 38F8-Hu58 (antibody, human IgG1, kappa, V domains shown)
VH: B2 VH with G42E, G44R
VL: B1 VL with S30N, N31S, F71Y, T85I
notes: humanized, human IgG1 / kappa

EC50 [1]: 0.11 nM | EC50 [2]: 0.82 nM | EC50 [3]: 0.28 nM | EC50 [4]: 0.35 nM
B21: 38F8-Hu18 (antibody, human IgG1, kappa, V domains shown)
VH: B2 VH with A23T, P60A, K75R, A112R, M115L
VL: B1 VL with S30N, N31S, F71Y, T85I
notes: humanized, human IgG1 / kappa

EC50 [1]: 0.13 nM | EC50 [3]: 0.16 nM | EC50 [4]: 0.17 nM | EC50 [5]: 0.17 nM
B22: 19F6-Hu35V5 (antibody, human IgG1, kappa, V domains shown)
VH: QVQLQESGPGLVKPSQTLSLTCTVSGYSITSDYAWNWIRQFPGKGLEWIGYISYSGSIRYNPSLKSRVTISRDTSKNQFSLKLSSVTAADTAVYYCARGEITYYFDYWGQGTLVTVSS
VL: ETTLTQSPAFMSATPGDKVTISCKASTDIDDDMNWYQQKPGKPPKLIISEGNTLRPGIPPRFSSSGYGTDFTFTINNIKSEDAATYYCLQSNDLPLTFGQGTKLEIKR
notes: humanized, human IgG1 / kappa

EC50 [1]: 0.22 nM | EC50 [3]: 0.1 nM | EC50 [4]: 0.18 nM | EC50 [5]: 0.19 nM
B23: 19F6-Hu35V7 (antibody, human IgG1, kappa, V domains shown)
VH: B22 VH
VL: B22 VL with D28S, K79Q
notes: humanized, human IgG1 / kappa

EC50 [1]: 0.19 nM | EC50 [3]: 0.1 nM | EC50 [4]: 0.18 nM | EC50 [5]: 0.19 nM
B24: 19F6-Hu35V2 (antibody, human IgG1, kappa, V domains shown)
VH: B22 VH
VL: B22 VL with D31S, K42E, N77K
notes: humanized, human IgG1 / kappa

EC50 [1]: 0.2 nM | EC50 [3]: 0.15 nM | EC50 [4]: 0.3 nM | EC50 [5]: 0.28 nM
B25: 19F6-Hu35V4 (antibody, human IgG1, kappa, V domains shown)
VH: B22 VH
VL: B22 VL with D28S, D31N, N77K, K79E
notes: humanized, human IgG1 / kappa

EC50 [1]: 0.18 nM | EC50 [3]: 0.09 nM | EC50 [4]: 0.12 nM | EC50 [5]: 0.18 nM
B26: 19F6-Hu35V8 (antibody, human IgG1, kappa, V domains shown)
VH: B22 VH
VL: B22 VL with D31N, K79Q
notes: humanized, human IgG1 / kappa

EC50 [1]: 0.2 nM | EC50 [3]: 0.08 nM | EC50 [4]: 0.16 nM | EC50 [5]: 0.17 nM
B27: 19F6-Hu35V6 (antibody, human IgG1, kappa, V domains shown)
VH: B22 VH
VL: B22 VL with D31N
notes: humanized, human IgG1 / kappa

EC50 [1]: 0.18 nM | EC50 [3]: 0.1 nM | EC50 [4]: 0.17 nM | EC50 [5]: 0.18 nM
B28: 19F6-Hu35V3 (antibody, human IgG1, kappa, V domains shown)
VH: B22 VH
VL: B22 VL with D28S, N77K, K79E
notes: humanized, human IgG1 / kappa

EC50 [1]: 0.19 nM | EC50 [3]: 0.13 nM | EC50 [4]: 0.08 nM | EC50 [5]: 0.61 nM
B29: 19F6-Hu25 (antibody, human IgG1, kappa, V domains shown)
VH: B22 VH with Q16E, F41P, I49M, S66D, V68I
VL: B22 VL with K42E, K79E, T85D
notes: humanized, human IgG1 / kappa

EC50 [1]: 0.15 nM | EC50 [3]: 0.08 nM | EC50 [4]: 0.09 nM | EC50 [5]: 0.38 nM
B30: 19F6-Hu35 (antibody, human IgG1, kappa, V domains shown)
VH: B22 VH
VL: B22 VL with K42E, K79E, T85D
notes: humanized, human IgG1 / kappa

EC50 [1]: 0.21 nM | EC50 [3]: 0.09 nM | EC50 [4]: 0.07 nM | EC50 [5]: 0.33 nM
B31: 19F6-Hu15 (antibody, human IgG1, kappa, V domains shown)
VH: B22 VH with Q16E, S25T, F41P, I49M, N61K, S66D, V68I
VL: B22 VL with K42E, K79E, T85D
notes: humanized, human IgG1 / kappa
